Laboratory results reported in publication PMC3438196.

Molecular target: Apobec3G Y124A MAPPIT bait (human) (UniProt Q9HC16)
Assay: two-hybrid; MAPPIT (mammalian two-hybrid) in intact HEK293T cells: bait on the EpoR/leptin receptor chimera, prey on gp130 fragments, pXP2d2-rPAP1-luciferase reporter; fold induction of luciferase, Epo-stimulated (10 ng/ml hEpo) over unstimulated; 6-well or 96-well calcium phosphate transfection

Sequence of Apobec3G Y124A MAPPIT bait (human) (Q9HC16 whole entry Y124A, the tested form may be a part): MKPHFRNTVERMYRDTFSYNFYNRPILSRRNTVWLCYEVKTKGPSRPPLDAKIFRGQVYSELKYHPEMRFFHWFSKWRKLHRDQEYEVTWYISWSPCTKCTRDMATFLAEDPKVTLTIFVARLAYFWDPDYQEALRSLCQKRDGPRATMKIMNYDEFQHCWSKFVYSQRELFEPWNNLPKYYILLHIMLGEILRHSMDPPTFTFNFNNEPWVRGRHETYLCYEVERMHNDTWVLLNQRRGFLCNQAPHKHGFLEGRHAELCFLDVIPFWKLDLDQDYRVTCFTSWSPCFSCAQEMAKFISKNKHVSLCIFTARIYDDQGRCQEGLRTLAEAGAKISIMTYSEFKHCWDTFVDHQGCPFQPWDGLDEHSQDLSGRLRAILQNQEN

Gagpol MAPPIT prey (pMG2-Gagpol) (natural protein)
MAPPIT signal, % of WT: 61 % of WT
